{"source": "paper PMC1636413", "about": "(Nucleic Acids Research, 2006)", "key": {"SEC [1]": {"biological_target": "the molecule itself", "assay": "SEC"}, "AUC": {"biological_target": "the molecule itself", "assay": "AUC"}, "SEC [2]": {"biological_target": "the molecule itself", "assay": "SEC", "remark": "listed apart in the source"}}, "note": "Values joined by “and” are separate entries in the source; they are usually repeats but may differ in a detail not shown here. Identical values can stand only once."}
{"protein": "MutS^CF (cysteine-free full-length E.coli MutS, N-terminal His6-tagged) (natural protein, UniProt P23909 1-853, looked up) MSAIENFDAHTPMMQQYLRLKAQHPEILLFYRMGDFYELFYDDAKRASQLLDISLTKRGASAGEPIPMAGIPYHAVENYLAKLVNQGESVAIAEQIGDPATSKGPVERKVVRIVTPGTISDEALLQERQDNLLAAIWQDSKGFGYATLDISSGRFRLSEPADRETMAAELQRTNPAELLYAEDFAEMSLIEGRRGLRRRPLWEFEIDTARQQLNLQFGTRDLVGFGVENAPRGLSAAGALLQYAKDTQRTTLPHIRSITMEREQDSIIMDAATRRNLEITQNLAGGAENTLASVLDSTVTPMGSRMLKRWLHMPVRDTRVLLERQQTIGALQDFTAGLQPVLRQVGDLERILARLALRTARPRDLARMRHAFQQLPELRAQLETVDSAPVQALREKMGEFAELRDLLERAIIDTPPVLVRDGGVIASGYNEELDEWRALADGATDYLERLEVRERERTGLDTLKVGFNAVHGYYIQISRGQSHLAPINYMRRQTLKNAERYIIPELKEYEDKVLTSKGKALALEKQLYEELFDLLLPHLEALQQSASALAELDVLVNLAERAYTLNYTSPTFIDKPGIRITEGRHPVVEQVLNEPFIANPLNLSPQRRMLIITGPNMGGKSTYMRQTALIALMAYIGSYVPAQKVEIGPIDRIFTRVGAADDLASGRSTFMVEMTETANILHNATEYSLVLMDEIGRGTSTYDGLSLAWAVAENLANKIKALTLFATHYFELTQLPEKMEGVANVHLDALEHGDTIAFMHSVQDGAASKSYGLAVAALAGVPKEVIKRARQKLRELESISPNAAATQVDGTQMSLLSVPEETSPAVEALENLDPDSLTPRQALEWIYRLKSLV", "values": [{"measurement": "stoichiometry N", "setting": "SEC [1]", "result": "4 and 2"}]}
{"protein": "MutS^CF/D835R (cysteine-free full-length E.coli MutS with D835R, N-terminal His6-tagged) (natural protein, UniProt P23909 1-853, looked up) MSAIENFDAHTPMMQQYLRLKAQHPEILLFYRMGDFYELFYDDAKRASQLLDISLTKRGASAGEPIPMAGIPYHAVENYLAKLVNQGESVAIAEQIGDPATSKGPVERKVVRIVTPGTISDEALLQERQDNLLAAIWQDSKGFGYATLDISSGRFRLSEPADRETMAAELQRTNPAELLYAEDFAEMSLIEGRRGLRRRPLWEFEIDTARQQLNLQFGTRDLVGFGVENAPRGLSAAGALLQYAKDTQRTTLPHIRSITMEREQDSIIMDAATRRNLEITQNLAGGAENTLASVLDSTVTPMGSRMLKRWLHMPVRDTRVLLERQQTIGALQDFTAGLQPVLRQVGDLERILARLALRTARPRDLARMRHAFQQLPELRAQLETVDSAPVQALREKMGEFAELRDLLERAIIDTPPVLVRDGGVIASGYNEELDEWRALADGATDYLERLEVRERERTGLDTLKVGFNAVHGYYIQISRGQSHLAPINYMRRQTLKNAERYIIPELKEYEDKVLTSKGKALALEKQLYEELFDLLLPHLEALQQSASALAELDVLVNLAERAYTLNYTSPTFIDKPGIRITEGRHPVVEQVLNEPFIANPLNLSPQRRMLIITGPNMGGKSTYMRQTALIALMAYIGSYVPAQKVEIGPIDRIFTRVGAADDLASGRSTFMVEMTETANILHNATEYSLVLMDEIGRGTSTYDGLSLAWAVAENLANKIKALTLFATHYFELTQLPEKMEGVANVHLDALEHGDTIAFMHSVQDGAASKSYGLAVAALAGVPKEVIKRARQKLRELESISPNAAATQVDGTQMSLLSVPEETSPAVEALENLDPRSLTPRQALEWIYRLKSLV", "values": [{"measurement": "stoichiometry N", "setting": "SEC [1]", "result": 2}]}
{"protein": "MutS^wt (E.coli MutS, full-length, N-terminal His6-tagged) (natural protein, UniProt P23909 1-853, looked up) MSAIENFDAHTPMMQQYLRLKAQHPEILLFYRMGDFYELFYDDAKRASQLLDISLTKRGASAGEPIPMAGIPYHAVENYLAKLVNQGESVAICEQIGDPATSKGPVERKVVRIVTPGTISDEALLQERQDNLLAAIWQDSKGFGYATLDISSGRFRLSEPADRETMAAELQRTNPAELLYAEDFAEMSLIEGRRGLRRRPLWEFEIDTARQQLNLQFGTRDLVGFGVENAPRGLCAAGCLLQYAKDTQRTTLPHIRSITMEREQDSIIMDAATRRNLEITQNLAGGAENTLASVLDCTVTPMGSRMLKRWLHMPVRDTRVLLERQQTIGALQDFTAGLQPVLRQVGDLERILARLALRTARPRDLARMRHAFQQLPELRAQLETVDSAPVQALREKMGEFAELRDLLERAIIDTPPVLVRDGGVIASGYNEELDEWRALADGATDYLERLEVRERERTGLDTLKVGFNAVHGYYIQISRGQSHLAPINYMRRQTLKNAERYIIPELKEYEDKVLTSKGKALALEKQLYEELFDLLLPHLEALQQSASALAELDVLVNLAERAYTLNYTCPTFIDKPGIRITEGRHPVVEQVLNEPFIANPLNLSPQRRMLIITGPNMGGKSTYMRQTALIALMAYIGSYVPAQKVEIGPIDRIFTRVGAADDLASGRSTFMVEMTETANILHNATEYSLVLMDEIGRGTSTYDGLSLAWACAENLANKIKALTLFATHYFELTQLPEKMEGVANVHLDALEHGDTIAFMHSVQDGAASKSYGLAVAALAGVPKEVIKRARQKLRELESISPNAAATQVDGTQMSLLSVPEETSPAVEALENLDPDSLTPRQALEWIYRLKSLV", "values": [{"measurement": "stoichiometry N", "setting": "SEC [1]", "result": "2 and 4"}]}
{"protein": "MutS-CTD (His6-tagged C-terminal domain of E.coli MutS, residues 801-853) (domain or fragment, UniProt P23909 801-853, looked up) PNAAATQVDGTQMSLLSVPEETSPAVEALENLDPDSLTPRQALEWIYRLKSLV", "values": [{"measurement": "stoichiometry N", "setting": "AUC", "result": 4}, {"measurement": "stoichiometry N", "setting": "SEC [2]", "result": 2}]}
{"protein": "MutS-CTD^ΔHis6 (MutS-CTD with the N-terminal His6-tag removed by DAPase) (domain or fragment, E.coli, UniProt P23909 801-853, looked up) PNAAATQVDGTQMSLLSVPEETSPAVEALENLDPDSLTPRQALEWIYRLKSLV", "values": [{"measurement": "stoichiometry N", "setting": "AUC", "result": 4}]}
{"protein": "MutS-CTD^D835R (domain or fragment, E.coli, UniProt P23909 801-853, looked up) PNAAATQVDGTQMSLLSVPEETSPAVEALENLDPRSLTPRQALEWIYRLKSLV", "values": [{"measurement": "stoichiometry N", "setting": "AUC", "result": 2}]}
{"protein": "MutS800^CF (cysteine-free truncated E.coli MutS, residues 1-800, N-terminal His6-tagged) (domain or fragment, UniProt P23909 1-800, looked up) MSAIENFDAHTPMMQQYLRLKAQHPEILLFYRMGDFYELFYDDAKRASQLLDISLTKRGASAGEPIPMAGIPYHAVENYLAKLVNQGESVAIAEQIGDPATSKGPVERKVVRIVTPGTISDEALLQERQDNLLAAIWQDSKGFGYATLDISSGRFRLSEPADRETMAAELQRTNPAELLYAEDFAEMSLIEGRRGLRRRPLWEFEIDTARQQLNLQFGTRDLVGFGVENAPRGLSAAGALLQYAKDTQRTTLPHIRSITMEREQDSIIMDAATRRNLEITQNLAGGAENTLASVLDSTVTPMGSRMLKRWLHMPVRDTRVLLERQQTIGALQDFTAGLQPVLRQVGDLERILARLALRTARPRDLARMRHAFQQLPELRAQLETVDSAPVQALREKMGEFAELRDLLERAIIDTPPVLVRDGGVIASGYNEELDEWRALADGATDYLERLEVRERERTGLDTLKVGFNAVHGYYIQISRGQSHLAPINYMRRQTLKNAERYIIPELKEYEDKVLTSKGKALALEKQLYEELFDLLLPHLEALQQSASALAELDVLVNLAERAYTLNYTSPTFIDKPGIRITEGRHPVVEQVLNEPFIANPLNLSPQRRMLIITGPNMGGKSTYMRQTALIALMAYIGSYVPAQKVEIGPIDRIFTRVGAADDLASGRSTFMVEMTETANILHNATEYSLVLMDEIGRGTSTYDGLSLAWAVAENLANKIKALTLFATHYFELTQLPEKMEGVANVHLDALEHGDTIAFMHSVQDGAASKSYGLAVAALAGVPKEVIKRARQKLRELESIS", "values": [{"measurement": "stoichiometry N", "setting": "SEC [1]", "result": 2}]}
